Key:
[1] = molecular target: myosin light chain 1 (MLC1) (Toxoplasma gondii (endogenous in tachyzoites)); test: co-IP; polyclonal anti-MLC1 or anti-GAP45 antibodies on [35S]-labelled wild type (RH) and MyoA-KO parasites and on MyoA-iKO parasites +/- ATc, Triton X-100 lysate, autoradiography, bands quantified with ImageJ
[2] = molecular target: gliding-associated protein GAP45 (Toxoplasma gondii (endogenous in tachyzoites)) (UniProt Q7Z289); test: as above

Substance: myosin C (MyoC) (natural protein)
- more MyoC co-precipitated in the absence of MyoA than in its presence [1]: 50%
- more MyoC co-precipitated in the absence of MyoA than in its presence [2]: 50%

Source: paper PMC4231161
